Patent US20190016826A1 (Genentech, published 2019)

Key:
[1] = biological target: T1, Protease domain of human HtrA1 (HuHtrA1_PD), residues D161-K379 (human, UniProt F1N152 168-386 (bovine entry)); assay: SPR (BIAcore T100), single-cycle kinetics, biotinylated HuHtrA1_PD captured on streptavidin, Fab in solution
T1 construct: Expressed in E. coli; not shown: thrombin cleavage site between tag and D161
Experimental: (§1) Briefly, series S sensor chip CM5 was activated with EDC and NHS reagents according to the supplier's instructions, and streptavidin (Pierce) was coupled to achieve approximately 2000 response units (RU), followed by blocking unreacted groups with 1M ethanolamine.
(§2) The sensorgrams were recorded and evaluated by BIAcore™ T100 Evaluation Software (version 2.0) after subtraction of reference cell signal. Association rates (kₒₙ) and dissociation rates (koff) were calculated using a simple one-to-one Langmuir binding model. The equilibrium dissociation constant (KD) was calculated as the ratio […] (see Table 1 below).

[2] = biological target: T2, Full length murine HtrA1 (MuHtrA1) (P24-P480), N-terminal His6 tag (murine, UniProt Q9R118 24-480); assay: SPR (BIAcore T100), single-cycle kinetics, biotinylated murine HtrA1 captured on streptavidin, Fab in solution
T2 construct: Expressed in insect cells
Source text: (§3) To determine the binding affinity of HtrA1 antibodies by single cycle kinetics, Surface Plasmon Resonance (SRP) measurement with a BIAcore™ T100 instrument was used. Briefly, a series S sensor chip CM5 was activated with EDC and NHS reagents according to the supplier's instructions, and streptavidin (Pierce) was coupled to achieve approximately 2000 response units (RU), followed by blocking un-reacted groups with 1M ethanolamine.
(§4) For kinetics measurements, biotinylated human or murine HtrA1 was first injected at 10 ul/min flow rate to capture approximately 100 RU at 3 different flow cells (FC), except for FC1 (reference), and then 5-fold serial dilutions of anti-HtrA1 Fab in HBS-P buffer (0.01M HEPES pH 7.4, 0.15M NaCl, 0.005% surfactant P20) from low (0.48 nM) to high (300 nM) [5 points] were injected (flow rate: 30 μl/min) one after the other in the same cycle with no regeneration between injections. The sensorgram was recorded and subject to reference and buffer subtraction before evaluation by BIAcore™ T100 Evaluation Software (version 2.0). Association rates (km) and dissociation rates (koff) were calculated using a simple one-to-one Langmuir binding model. The equilibrium dissociation constant (Kd) was calculated as the ratio koff/kₒₙ.

D250A = biological target: T3, D250A; assay: ELISA on plate-coated HuHtrA1_PD mutants (Example 7); column head on the sheet reads YW505.94 Fab, legend paragraph 70 says IgG94
T3 construct: also called HuHtrA1_PD(D250A)
Experimental: (§5) The mutants were expressed in E. coli and the trimers purified by size exclusion chromatography as described in Example 2. Binding was determined using an ELISA assay, which was conducted using a MAXISORP™ microtiter plate coated with HuHtrA1_PD mutants at 2 μg/ml in PBS for 1 h, followed by blocking with PBST buffer (0.5% BSA and 0.05% Tween 20 in PBS) for 1 h at room temperature. […] The plates were washed with PBT buffer (0.05% Tween 20 in PBS), and HRP-conjugated goat anti-human IgG (H+L) (Invitrogen) was added (1:5000 in PBST buffer) and incubated for 1 h. The plates were washed with PBT buffer and developed by adding tetramethylbenzidine substrate (Kirkegaard and Perry Laboratories, Gaithersburg, Md.). The absorbance at 450 nm was plotted as a function of antibody concentration in solution to determine EC₅₀ values.
(§6) In trypsin-like serine proteases these loops are known to be part of the specificity determining region that interacts with substrates.

K191A = biological target: T4, K191A; assay: as above
T4 construct: also called HuHtrA1_PD(K191A)
Experimental: as §5, §6

K248A = biological target: T5, K248A; assay: as above
T5 construct: also called HuHtrA1_PD(K248A)
Experimental: as §5, §6

Y325A = biological target: T6, Y325A; assay: as above
T6 construct: also called HuHtrA1_PD(Y325A)
Experimental: as §5, §6

HuHtrA1_PD(K243A) = biological target: T7, HuHtrA1_PD(K243A) (human, UniProt F1N152 168-386 (bovine entry)); assay: as above
T7 construct: Alanine mutant of HuHtrA1_PD; also called HuHtrA1 mutant K243A; not shown: thrombin cleavage site
T7 chain: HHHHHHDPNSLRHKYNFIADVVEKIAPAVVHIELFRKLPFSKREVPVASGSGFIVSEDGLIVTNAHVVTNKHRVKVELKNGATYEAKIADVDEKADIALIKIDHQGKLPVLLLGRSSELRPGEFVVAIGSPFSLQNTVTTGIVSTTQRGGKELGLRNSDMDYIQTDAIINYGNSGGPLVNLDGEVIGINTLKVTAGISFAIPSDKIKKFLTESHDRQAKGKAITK
Experimental: as §5, §6

[3] = biological target: T8, Full length human HtrA1 (HuHtrA1) (Q23-P480), N-terminal His6 tag (human, UniProt Q92743 23-480); assay: cell-based or functional assay
[4] = biological target: T8, Full length human HtrA1 (HuHtrA1) …; assay: SPR (BIAcore T100), single-cycle kinetics, biotinylated human HtrA1 captured on streptavidin, Fab in solution
Source text: as §3, §4

[5] = biological target: Protease domain of murine HtrA1 (MuHtrA1_PD) (G156-S367) (murine, UniProt Q9R118 156-367); assay: SPR (BIAcore T100), single-cycle kinetics, biotinylated MuHtrA1_PD captured on streptavidin, Fab in solution
Experimental: as §1, §2

T8 sequence (Q92743 other isoform, or with tags, fused parts or gaps): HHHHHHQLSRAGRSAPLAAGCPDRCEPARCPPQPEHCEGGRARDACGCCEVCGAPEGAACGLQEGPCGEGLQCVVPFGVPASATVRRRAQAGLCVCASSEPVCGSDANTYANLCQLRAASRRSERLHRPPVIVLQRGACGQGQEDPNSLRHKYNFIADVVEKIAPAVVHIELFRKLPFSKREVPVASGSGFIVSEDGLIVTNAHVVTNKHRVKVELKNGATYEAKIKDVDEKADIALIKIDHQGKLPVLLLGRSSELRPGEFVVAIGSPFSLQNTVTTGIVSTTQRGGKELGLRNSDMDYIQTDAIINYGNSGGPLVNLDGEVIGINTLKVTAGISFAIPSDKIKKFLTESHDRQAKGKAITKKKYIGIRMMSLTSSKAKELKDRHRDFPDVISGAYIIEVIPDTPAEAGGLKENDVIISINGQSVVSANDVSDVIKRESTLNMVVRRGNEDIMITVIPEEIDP
Protease domain of murine HtrA1 (MuHtrA1_PD) (G156-S367), sequence (Q9R118 other isoform, or with tags, fused parts or gaps): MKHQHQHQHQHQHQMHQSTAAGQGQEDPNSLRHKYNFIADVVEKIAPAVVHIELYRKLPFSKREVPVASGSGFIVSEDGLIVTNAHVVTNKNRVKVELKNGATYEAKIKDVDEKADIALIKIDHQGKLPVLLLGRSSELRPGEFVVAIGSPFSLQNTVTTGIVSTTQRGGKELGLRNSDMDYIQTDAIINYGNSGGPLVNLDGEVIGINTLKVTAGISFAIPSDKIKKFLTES
T2 sequence (Q9R118 other isoform, or with tags, fused parts or gaps): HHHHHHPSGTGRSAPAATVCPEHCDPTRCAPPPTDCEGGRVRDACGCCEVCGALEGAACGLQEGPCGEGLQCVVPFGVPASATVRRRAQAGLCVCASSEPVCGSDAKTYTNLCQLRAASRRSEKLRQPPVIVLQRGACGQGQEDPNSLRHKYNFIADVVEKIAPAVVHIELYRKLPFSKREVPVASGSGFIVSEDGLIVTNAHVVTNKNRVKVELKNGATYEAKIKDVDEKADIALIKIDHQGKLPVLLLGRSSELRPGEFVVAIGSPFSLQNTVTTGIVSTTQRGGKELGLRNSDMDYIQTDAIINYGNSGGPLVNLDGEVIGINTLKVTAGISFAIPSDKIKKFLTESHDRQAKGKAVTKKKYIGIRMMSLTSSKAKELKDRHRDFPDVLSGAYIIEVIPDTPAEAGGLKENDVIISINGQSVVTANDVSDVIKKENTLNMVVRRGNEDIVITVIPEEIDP

B1: Fab94 (anti-HtrA1 antibody YW505.94, Fab format) (Fab, V domains shown)
VH: EVQLVESGGGLVQPGGSLRLSCAASGFNISGYYIHWVRQAPGKGLEWVGWIDPYGGDTNYADSVKGRFTISADTSKNTAYLQMNSLRAEDTAVYYCARGTFLTSWGHYFDYWGQGT
VL: DIQMTQSPSSLSASVGDRVTITCRASQDVSTAVAWYQQKPGKAPKLLIYSASFLYSGVPSRFSGSGSGTDFTLTISSLQPEDFATYYCQQSYTTPPTFGQGTKVEIKR
Kd [1]: 31.1 nM | koff [1]: 0.0109 s⁻¹ | kon [1]: 350000 M⁻¹ s⁻¹ | Kd [2]: 28.9 nM | koff [2]: 0.0129 s⁻¹ | kon [2]: 447000 M⁻¹ s⁻¹ | EC50 (D250A): 9.4 nM | Relative to WT EC50 Fold Decrease (D250A): 1.7 fold | EC50 (K191A): 14 nM | Relative to WT EC50 Fold Decrease (K191A): 2.5 fold | EC50 (K248A): 196 nM | Relative to WT EC50 Fold Decrease (K248A): 35 fold | EC50 (Y325A): 7.7 nM | Relative to WT EC50 Fold Decrease (Y325A): 1.4 fold | EC50 (HuHtrA1_PD(K243A)): 64.9 nM | Relative to WT EC50 Fold Decrease (HuHtrA1_PD(K243A)): 11.6 fold | IC50, inhibition of H2-Opt peptide hydrolysis (FRET assay) [3]: 29.1 nM | Kd [4]: 31.1 nM | koff [4]: 0.0109 s⁻¹ | kon [4]: 351000 M⁻¹ s⁻¹ | Kd [5]: 28.9 nM | koff [5]: 0.0129 s⁻¹ | kon [5]: 450000 M⁻¹ s⁻¹
